1 molecule from patent publication US20040037820A1 (published 2004) can be followed below.

For this assay, the target named is T1, VEGFR-3 full-length extracellular domain (Homo sapiens (Human), UniProt P35916 25-775).
T1 construct: the construct is not described; also called the full-length extracellular domain
T1 sequence: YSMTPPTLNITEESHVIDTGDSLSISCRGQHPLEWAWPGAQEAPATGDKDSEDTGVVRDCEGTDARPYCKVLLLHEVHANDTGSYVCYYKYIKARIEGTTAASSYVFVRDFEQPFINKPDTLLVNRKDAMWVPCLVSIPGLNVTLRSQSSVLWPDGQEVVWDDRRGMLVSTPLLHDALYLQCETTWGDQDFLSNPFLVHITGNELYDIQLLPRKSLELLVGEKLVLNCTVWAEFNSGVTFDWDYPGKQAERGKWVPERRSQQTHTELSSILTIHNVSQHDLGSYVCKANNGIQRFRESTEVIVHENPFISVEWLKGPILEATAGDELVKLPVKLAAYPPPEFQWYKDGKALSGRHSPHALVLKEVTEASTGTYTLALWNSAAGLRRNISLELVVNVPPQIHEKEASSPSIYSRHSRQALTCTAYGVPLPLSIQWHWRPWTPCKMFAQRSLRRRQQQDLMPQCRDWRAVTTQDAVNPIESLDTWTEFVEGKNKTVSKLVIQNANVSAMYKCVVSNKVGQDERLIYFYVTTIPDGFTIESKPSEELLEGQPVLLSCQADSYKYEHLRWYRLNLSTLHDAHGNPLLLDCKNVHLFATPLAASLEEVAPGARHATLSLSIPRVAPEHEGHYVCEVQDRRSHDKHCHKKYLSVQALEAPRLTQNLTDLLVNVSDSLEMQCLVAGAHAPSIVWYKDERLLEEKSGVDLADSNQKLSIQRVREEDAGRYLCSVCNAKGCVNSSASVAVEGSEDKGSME
Kind of assay: not described.

B1: VEGF-D (ligand)
chain: FYDIETLKVIDEEWQRTQCSPRETCVEVASELGKSTNTFFKPPCVNVFRCGGCCNEESLICMNTSTSYISKQLFEISVPLTSVPELVPVKVANHTGCKCLPTAPRHPYS
notes: Bought protein; also called vascular endothelial growth factor D
Turning to B1, the binding result is listed as “binds”.
